Experimental data reported in patent publication US20180371053A1 (UNIVERSITY OF NORTH CAROLINA AT CHAPEL HILL, published 2018).

Experiments:
[1] = molecular target: T1, murine B7-H3 (mouse, UniProt Q8VE98 29-316); assay: flow cytometry on Raji clones expressing mB7-H3
T1 construct: whole, on cells; also called mB7-H3; mouse B7-H3
T1 sequence (looked up): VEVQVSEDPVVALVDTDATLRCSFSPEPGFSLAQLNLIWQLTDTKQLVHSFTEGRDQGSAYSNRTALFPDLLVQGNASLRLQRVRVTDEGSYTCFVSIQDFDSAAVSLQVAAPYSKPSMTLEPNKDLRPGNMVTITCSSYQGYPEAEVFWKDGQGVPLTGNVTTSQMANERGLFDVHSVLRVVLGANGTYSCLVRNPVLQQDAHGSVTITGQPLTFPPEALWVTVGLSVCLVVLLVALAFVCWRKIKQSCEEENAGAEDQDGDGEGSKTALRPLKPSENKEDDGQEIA

[2] = molecular target: T2, human 4Ig-B7-H3 (human, UniProt Q5ZPR3 29-534); assay: flow cytometry on Raji clones expressing 4Ig-hB7-H3
T2 construct: whole, on cells; also called 4Ig-hB7-H3; Raji-4IgB7-H3
T2 sequence (looked up): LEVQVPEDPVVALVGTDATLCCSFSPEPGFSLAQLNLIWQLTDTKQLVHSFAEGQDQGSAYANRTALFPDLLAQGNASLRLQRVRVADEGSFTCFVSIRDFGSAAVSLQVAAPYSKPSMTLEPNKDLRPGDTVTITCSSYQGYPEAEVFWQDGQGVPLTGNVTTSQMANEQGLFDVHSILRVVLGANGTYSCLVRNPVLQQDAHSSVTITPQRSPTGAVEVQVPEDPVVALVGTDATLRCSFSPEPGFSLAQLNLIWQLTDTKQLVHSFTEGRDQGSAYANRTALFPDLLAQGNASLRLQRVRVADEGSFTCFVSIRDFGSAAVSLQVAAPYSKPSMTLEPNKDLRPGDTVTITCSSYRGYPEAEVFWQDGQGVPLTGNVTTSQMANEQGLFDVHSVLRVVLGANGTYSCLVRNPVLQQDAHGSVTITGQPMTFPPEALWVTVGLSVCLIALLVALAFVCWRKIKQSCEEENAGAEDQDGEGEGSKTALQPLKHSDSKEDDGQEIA

binding result [1]: binds
binding result [2]: binds
B1: anti-B7-H3 mAb 376.96 (antibody, V domains shown)
VH: EVQLVESGGGLVKPGGSLKLSCEASRFTFSSYAMSWVRQTPEKRLEWVAAISGGGRYTYYPDSMKGRFTISRDNAKNFLYLQMSSLRSEDTAMYYCARHYDGYLDYWGQGTTLTVSS
VL: DIVMTQSHKFMSTSIGARVSITCKASQDVRTAVAWYQQKPGQSPKLLIYSASYRYTGVPDRFTGSGSGTDFTFTISSVQAEDLAVYYCQQHYGTPPWTFGGGTKLEIK
notes: The residue ranges are my derivation
